Experimental data as given in patent US20200247901A1.

Target: mesothelin on RH29 mesothelioma cells (V and M variant ratio 50:50) (human) (UniProt Q13421)
Assay: cell-based or functional assay

mesothelin on RH29 mesothelioma cells (V and M variant ratio 50:50) (human), sequence (Q13421 other isoform, or with tags, fused parts or gaps mutant limits assumed): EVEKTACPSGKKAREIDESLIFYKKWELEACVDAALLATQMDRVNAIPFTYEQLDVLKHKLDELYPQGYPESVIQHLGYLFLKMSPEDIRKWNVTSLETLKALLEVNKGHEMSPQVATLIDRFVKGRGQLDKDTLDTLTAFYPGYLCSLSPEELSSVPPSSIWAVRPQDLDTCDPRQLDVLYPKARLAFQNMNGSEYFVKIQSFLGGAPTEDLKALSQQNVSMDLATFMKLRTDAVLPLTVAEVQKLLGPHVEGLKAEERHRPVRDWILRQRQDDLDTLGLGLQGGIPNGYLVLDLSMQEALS

decrease in mesothelin shedding from RH29 cells (ELISA of shed mesothelin, OD value): 50%
B1: 15B6 anti-mesothelin antibody (IgG2b) (antibody, V domains shown)
VH: EVQLQQSGPVLVKPGASVKISCKASGYSFTGYYMHWVRQSLVKRLEWIGRINPYTGVPSYKHNFKDKASLTVDKSSSTAYMELHSLTSEDSAVYYCARELGGYWGQGTTLTVSS
VL: QAVVTQESALTTSPGETVTLTCRSSTGAVTTGNYPNWVQEKPDHLFTGLIAGTNNRAPGVPARFSGSLIGDKAALTITGAQTEDEAIYFCALWFSSHWVFGGGTKLTVL
